Reference: doi:10.1101/2024.07.08.602401 (bioRxiv, 2024)
Substitutions are numbered along the chain they refer to.

B1: 3H4v31 IgG1 (antibody, V domains shown)
VH: EVQLQESGPELVKPGASVKIPCKASGYTFTDYNMDWVKQSHGKSLEWIGDINPNNGGTIYNQKFKGKATLTVDKSSSTAYMELRSLTSEDTAVYYCARPDSAQYRWNWYFDVWGTGTTVTVSS
VL: DIVITQSPSSMYASLGERVTITCKASQDINSYLSWFQQKPGKSPKTLIYRANRLVDGVPSRFSGSGSGQDYSLTISSLEYEDMGIYYCLQYDEFPLTFGAGTKLELK
B2: wildtype 3H4 IgG1 (antibody, V domains shown)
VH: B1 VH with S101Y, A102Y, Q103G, Y104S, R105S, W106Y, N107G
VL: B1 VL

Assays:
HLA-E-VL9 complex = HLA-E-VL9 complex (Homo sapiens, HLA-E*01:03, strain); assay: BLI
[1] = target: HLA-E-… single chain trimer on transfected 293T cells (Homo sapiens HLA-E*01:03 assumed; …); assay: flow cytometry on cells
[2] = target: HLA-E-[…] single chain trimer on transfected 293T cells (Homo sapiens HLA-E*01:03 assumed; …); assay: flow cytometry on cells

| Binder | Kd (HLA-E-VL9 complex) [nM] | binding result [1] | binding result [2] |
| --- | --- | --- | --- |
| B1 | 11.5 |  |  |
| B2 |  | binds | binds |
